Measured values: patent US12552876

Target: HSA-Fuc-GM1 conjugate (human)
Assay: SPR (Biacore X), HSA-Fuc-GM1 conjugate amine-coupled to CM5 chip, antibody as analyte, bivalent analyte model

HSA-Fuc-GM1 conjugate (human), sequence (P02768 25-609): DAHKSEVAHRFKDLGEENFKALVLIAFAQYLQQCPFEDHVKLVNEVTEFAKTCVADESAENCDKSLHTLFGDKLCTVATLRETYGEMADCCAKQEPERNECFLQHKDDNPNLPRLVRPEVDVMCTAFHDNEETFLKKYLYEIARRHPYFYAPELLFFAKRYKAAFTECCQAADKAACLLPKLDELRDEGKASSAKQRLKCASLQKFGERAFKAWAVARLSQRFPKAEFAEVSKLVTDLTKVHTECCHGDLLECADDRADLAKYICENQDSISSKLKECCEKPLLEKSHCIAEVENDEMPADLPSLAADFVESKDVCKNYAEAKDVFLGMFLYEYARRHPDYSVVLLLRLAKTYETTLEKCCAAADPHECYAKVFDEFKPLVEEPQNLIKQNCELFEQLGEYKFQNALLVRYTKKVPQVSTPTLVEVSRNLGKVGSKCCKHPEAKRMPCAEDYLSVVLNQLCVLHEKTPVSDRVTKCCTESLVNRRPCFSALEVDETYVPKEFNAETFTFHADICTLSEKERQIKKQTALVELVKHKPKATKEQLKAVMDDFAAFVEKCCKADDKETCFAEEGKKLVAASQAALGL

B1: mAb FL134.33 (antibody, V domains shown)
VH: AVQLQESGPDLVKPSQSLSLTCTVTGYSITSGYSWHWIRQFPGNKLEWVGYIHYRGNTNYNPSLKSRVSITRDTYKNQFFLQLNSLTTEDTATYYCAQEPVRNYAMDFWGQGTSVTVSS
VL: DIVMTQSPDTLSVTPGDRVSLSCRASQSISDDLHWYQQKSHESPRLLIKYVSQSISGIPSRFSGSGSRSDFTLTINSVEPEDVGLYYCQNGHGFPPTFGGGTKLEIK
For B1, the Kd was 58 µM, the koff was 0.117 s⁻¹ and the kon was 2010 M⁻¹ s⁻¹.
